Laboratory results from patent US20180155451A1 (published 2018).
Like-named read-outs stand apart in the source and are kept apart here.

Key:
Assay in all cases: SPR (Biacore), antibody captured on chip, FcgR extracellular domain as analyte
FcgRIIIa F [1] = target: T1, FcgRIIIa F (human, UniProt P08637 17-208)
T1 construct: extracellular domain; also called FcγRIIIa F; not shown: His tag attached to the C terminus
Experimental: (§1) Specifically, H240-Kn120 (SEQ ID NO: 99) resulting from introduction of S239M into H240-Kn067 and H240-Kn126 (SEQ ID NO: 100) resulting from introduction of Y235Q into H240-Kn120 were prepared according to the method described in Reference Example 1. […] Those described above were assayed for the binding to each FcgR according to the method described in Reference Example 8.
(§2) Analysis of interaction between obj ective antibody and the FcγR was carried out using Biacore T100 (GE Healthcare), Biacore T200, Biacore A100, and Biacore 4000. HBS-EP+ (GE Healthcare) was used as the running buffer, and the measurement temperature was set to 25° C. Chips produced by immobilizing the antigen peptide by the amine coupling method to a Series S sensor Chip CM5 (GE Healthcare), chips produced by allowing preliminarily biotinylated antigen peptides to interact with and immobilize onto a Series S Sensor Chip SA (certified) (GE Healthcare), chips produced by immobilizing Protein L (ACTIGEN, BioVision) to Series S Sencor Chip CM5 (GE Healthcare), or chips produced by immobilizing Protein A/G (Thermo Scientific) to Series S Sencor Chip CM5 (GE Healthcare) were used. Antibodies of interest were captured onto these chips, and allowed to interact to each FcγR diluted with running buffer. To regenerate and repeatedly use the chip, the antibodies captured onto the chip were washed off by reacting 10 mM glycine-HCl, pH 1.5.

FcgRIIb = target: T2, FcgRIIb (human, UniProt P31994 43-217)
T2 construct: extracellular domain; Expressed in FreeStyle293 cells and purified; used as analyte in Biacore; also called FcγRIIb; CD32B; not shown: His tag attached to the C terminus
T2 sequence (looked up): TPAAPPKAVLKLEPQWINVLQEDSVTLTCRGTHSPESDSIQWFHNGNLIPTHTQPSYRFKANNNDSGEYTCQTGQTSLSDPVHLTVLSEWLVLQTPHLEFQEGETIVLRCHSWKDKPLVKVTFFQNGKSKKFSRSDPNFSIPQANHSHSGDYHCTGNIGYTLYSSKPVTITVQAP
Experimental: as §1, §2

FcgRIa = target: T3, FcgRIa (human, UniProt P12314 16-292)
T3 construct: extracellular domain; Expressed in FreeStyle293 cells and purified; used as analyte in Biacore; also called FcγRIa; FcγRI; not shown: His tag attached to the C terminus
Experimental: as §1, §2

FcgRIIIa V [2] = target: T4, FcgRIIIa V (human, UniProt P08637 17-208)
T4 construct: extracellular domain; also called FcγRIIIa V; not shown: His tag attached to the C terminus
Experimental: as §1, §2

FcgRIIa H [3] = target: T5, FcgRIIa H (human, UniProt P12318 34-217)
T5 construct: extracellular domain; also called FcγRIIa H; FcγRIIa type H; not shown: His tag attached to the C terminus
T5 sequence (looked up): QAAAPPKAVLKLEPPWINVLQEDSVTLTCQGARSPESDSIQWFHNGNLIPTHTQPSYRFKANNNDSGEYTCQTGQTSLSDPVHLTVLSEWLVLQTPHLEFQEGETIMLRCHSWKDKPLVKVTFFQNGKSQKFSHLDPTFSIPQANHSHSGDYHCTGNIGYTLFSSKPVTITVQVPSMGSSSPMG
Experimental: as §1, §2

FcgRIIa R [4] = target: T6, FcgRIIa R (human, UniProt P12318 34-217)
T6 construct: extracellular domain; also called FcγRIIa R; FcγRIIa type R; not shown: His tag attached to the C terminus
T6 sequence (looked up): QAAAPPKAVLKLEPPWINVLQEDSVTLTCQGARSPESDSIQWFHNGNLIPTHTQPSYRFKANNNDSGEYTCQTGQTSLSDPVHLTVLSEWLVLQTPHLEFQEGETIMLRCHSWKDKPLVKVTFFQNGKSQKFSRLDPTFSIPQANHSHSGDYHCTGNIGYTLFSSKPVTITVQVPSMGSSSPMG
Experimental: as §1, §2

FcgRIIIa F [5] = target: T1, FcgRIIIa F; remark: listed apart in the source
Experimental: as §2

FcgRIIIa V [6] = target: T4, FcgRIIIa V; remark: listed apart in the source
Experimental: as §2

FcgRIIa H [7] = target: T5, FcgRIIa H; remark: listed apart in the source
Experimental: as §2

FcgRIIa R [8] = target: T6, FcgRIIa R; remark: listed apart in the source
Experimental: as §2

T4 sequence (P08637 17-208 F176V limits assumed): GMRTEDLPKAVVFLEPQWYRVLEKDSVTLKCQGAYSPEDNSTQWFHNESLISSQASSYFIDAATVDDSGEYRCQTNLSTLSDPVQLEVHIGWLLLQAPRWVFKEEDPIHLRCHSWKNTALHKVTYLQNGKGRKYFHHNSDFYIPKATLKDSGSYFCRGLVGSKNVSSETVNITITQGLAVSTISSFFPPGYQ
T1 sequence (P08637 17-208): as the sequence (P08637 17-208 F176V limits assumed) above, with V160F counted along it
T3 sequence (P12314 16-292): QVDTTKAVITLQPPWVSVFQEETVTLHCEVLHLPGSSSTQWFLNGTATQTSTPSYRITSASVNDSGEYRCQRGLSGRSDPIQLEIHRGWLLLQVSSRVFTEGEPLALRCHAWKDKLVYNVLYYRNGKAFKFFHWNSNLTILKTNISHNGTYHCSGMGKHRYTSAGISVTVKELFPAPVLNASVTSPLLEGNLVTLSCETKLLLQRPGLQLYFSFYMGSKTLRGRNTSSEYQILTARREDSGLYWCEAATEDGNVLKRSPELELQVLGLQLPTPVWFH

Kd (FcgRIIIa F [1]): 7.1 nM
Kd (FcgRIIb): 370 nM
Kd (FcgRIa): 0.26 nM
Kd (FcgRIIIa V [2]): 1.6 nM
Kd (FcgRIIa H [3]): 94 nM
Kd (FcgRIIa R [4]): 49 nM
Kd (FcgRIIIa F [5]): 7.1 nM
Kd (FcgRIIIa V [6]): 1.6 nM
Kd (FcgRIIa H [7]): 94 nM
Kd (FcgRIIa R [8]): 49 nM
B1: H240-Kn067/H240-Hl068/L73-k0 (antibody, human IgG1, kappa)
heavy 1: QDQLVQSGAEVKKPGASVKVSCKASGFNIKDTYIQWVRQAPGQGLEWMGRIDPLRKQTKYREKFEGRVTITADTSTNTAYMELSSLRSEDTAVYYCVRSGREFDYWGQGTLVTVSSASTKGPSVFPLAPSSKSTSGGTAALGCLVKDYFPEPVTVSWNSGALTSGVHTFPAVLQSSGLYSLSSVVTVPSSSLGTQTYICNVNHKPSNTKVDKKVEPKSCDKTHTCPPCPAPEYYWGPSVFLFPPKPKDTLMISRTPEVTCVVVDVSDEDPEVKFNWYVDGVEVHNAKTKPREEQYNATYRVVSVLTVLHQDWLNGKEYKCKVSNKDLPAPIEKTISKAKGQPREPQVCTLPPSRDELTKNQVSLWCLVKGFYPSDIAVEWESNGQPENNYKTTPPVLDSDGSFFLYSKLTVDKSRWQQGNVFSCSVMHEALHNHYTQKSLSLSP
heavy 2: QDQLVQSGAEVKKPGASVKVSCKASGFNIKDTYIQWVRQAPGQGLEWMGRIDPLRKQTKYREKFEGRVTITADTSTNTAYMELSSLRSEDTAVYYCVRSGREFDYWGQGTLVTVSSASTKGPSVFPLAPSSKSTSGGTAALGCLVKDYFPEPVTVSWNSGALTSGVHTFPAVLQSSGLYSLSSVVTVPSSSLGTQTYICNVNHKPSNTKVDKKVEPKSCDKTHTCPPCPAPELLGGPSVFLFPPKPKDTLMISRTPEVTCVVVDVSHEEPEVKFNWYVDGVEVHNAKTKPREEQYNSTYRVVSVLTVLHQDWLNGKEYKCKVSNDALPKPIEETISKAKGQPREPQVYTLPPSRCELTKNQVSLSCAVKGFYPSDIAVEWESNGQPENNYKTTPPVLDSDGSFFLVSKLTVDKSRWQQGNVFSCSVMHEALHNHYTQKSLSLSP
light: DIQMTQSPSSLSASVGDRVTITCRASQDIHKYIAWYQQKPGQAPRLLIQYTSTLQPGVPSRFSGSGSGTDYTFTISSLQPEDIATYYCLQYEQLRTFGGGTKVEIKRTVAAPSVFIFPPSDEQLKSGTASVVCLLNNFYPREAKVQWKVDNALQSGNSQESVTEQDSKDSTYSLSSTLTLSKADYEKHKVYACEVTHQGLSSPVTKSFNRGEC
notes: Heterodimerized anti-EREG IgG1: L234Y/L235Y/G236W/H268D/S298A/A327D in Kn067, D270E/K326D/A330K/K334E in Hl068; also called H240-Kn067/H240-HI068/L73-k0
